Experiments:
[1] = molecular target: T1, MBP-Rv3124-His6 (MoaR1) (Mycobacterium tuberculosis (gDNA; strain H37Rv?)) (UniProt O05797); assay: EMSA
T1 sequence: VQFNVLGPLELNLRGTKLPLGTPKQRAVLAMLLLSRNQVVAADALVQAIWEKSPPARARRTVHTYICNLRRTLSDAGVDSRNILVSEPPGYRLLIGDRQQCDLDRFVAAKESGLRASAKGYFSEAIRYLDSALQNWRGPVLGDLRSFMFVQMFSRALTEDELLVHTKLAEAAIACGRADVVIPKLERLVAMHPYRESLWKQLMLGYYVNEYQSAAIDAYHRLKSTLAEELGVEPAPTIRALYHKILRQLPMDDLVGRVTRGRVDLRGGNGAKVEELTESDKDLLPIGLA

[2] = molecular target: T1, MBP-Rv3124-His6 (MoaR1) (Mycobacterium tuberculosis (gDNA; strain H37Rv?)); assay: competition

Sequence: ATGGAGCTACCATATCAGGCAGCGTAGGCGTACTCATTTTCCTATCATCTTTTCGATCCTCCACTTTGGACGCAGTCGGTTAGAGCGCCTCAAGAGAGTTTCGTACAAGGGTTAACTAACAATCGTTACCGAAATGCATCGGCGCATCGTGGCGCAGCGCATGAGCCTGCGTTTATGGCGCGTTGTTAGGGCGGAATCCGACCACTCATGTGCGAGCTTTCGTT (double strand) [Rv3109pro (222 bp)]
- binding [1]: binds
- binding [2]: binds

— paper PMC3068679
